IntAct's records for PubMed 12655004

B1: U3 small nucleolar ribonucleoprotein protein IMP4 (Homo sapiens), Q96G21 (parent)
chain: MLRREARLRREYLYRKAREEAQRSAQERKERLRRALEENRLIPTELRREALALQGSLEFDDAGGEGVTSHVDDEYRWAGVEDPKVMITTSRDPSSRLKMFAKELKLVFPGAQRMNRGRHEVGALVRACKANGVTDLLVVHEHRGTPVGLIVSHLPFGPTAYFTLCNVVMRHDIPDLGTMSEAKPHLITHGFSSRLGKRVSDILRYLFPVPKDDSHRVITFANQDDYISFRHHVYKKTDHRNVELTEVGPRFELKLYMIRLGTLEQEATADVEWRWHPYTNTARKRVFLSTE
partner: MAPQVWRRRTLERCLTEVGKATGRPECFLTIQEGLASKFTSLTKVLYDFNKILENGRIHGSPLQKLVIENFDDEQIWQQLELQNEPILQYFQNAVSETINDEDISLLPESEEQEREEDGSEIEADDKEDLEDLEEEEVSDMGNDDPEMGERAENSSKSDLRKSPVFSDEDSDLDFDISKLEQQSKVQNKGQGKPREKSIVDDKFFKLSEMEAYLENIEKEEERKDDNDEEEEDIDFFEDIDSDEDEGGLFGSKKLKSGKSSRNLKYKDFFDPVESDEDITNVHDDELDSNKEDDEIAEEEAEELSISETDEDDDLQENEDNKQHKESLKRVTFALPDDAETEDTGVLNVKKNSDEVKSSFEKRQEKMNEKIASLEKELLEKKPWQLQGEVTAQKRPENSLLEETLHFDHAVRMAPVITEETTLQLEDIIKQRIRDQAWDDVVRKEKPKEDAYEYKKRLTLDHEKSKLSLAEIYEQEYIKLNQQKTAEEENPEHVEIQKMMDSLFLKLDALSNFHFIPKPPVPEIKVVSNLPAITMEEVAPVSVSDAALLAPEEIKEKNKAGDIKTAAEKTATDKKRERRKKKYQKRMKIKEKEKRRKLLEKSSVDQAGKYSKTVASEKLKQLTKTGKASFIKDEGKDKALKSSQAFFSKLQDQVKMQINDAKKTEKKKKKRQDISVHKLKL

Variants of: B1
Conditions: with mpp10_human MPHOSPH10, O00566

| effect of a mutation on the interaction | Variant |
| --- | --- |
| disrupting interaction strength | MLRREARLRREYLYRKAREEAQRSAQERKERLRRALEENRLIPTELRREALALQGSLEFDDAGGEGVTSHVDDEYRWAGVEDPKVMITTSRDPSSRLKMFAKELKLVFPGAQRMNRGRHEVGALVRACKANGVTDLLVVHEHRGTPVGLIVSHLPFGPTAYFTLCNVVMRHDIPDLGTMSEAKPHLITHGFSSRLGKRVSDILRYLFPVPKDDSHRVITFANQDDYISFRHHVYKKTDHRNVELTAVGPAFELKLYMIRLGTLEQEATADVEWRWHPYTNTARKRVFLSTE [E246A;R250A] |
| disrupting interaction strength | MLRREARLRREYLYRKAREEAQRSAQERKERLRRALEENRLIPTELRREALALQGSLEFDDAGGEGVTSHVDDEYRWAGVEDPKVMITTSRDPSSRLKMFAKELKLVFPGAQRMNRGRHEVGALVRACKANGVTDLLVVHEHRGTPVGLIVSHLPFGPAAYATLCNVVMRHDIPDLGTMSEAKPHLITHGFSSRLGKRVSDILRYLFPVPKDDSHRVITFANQDDYISFRHHVYKKTDHRNVELTEVGPRFELKLYMIRLGTLEQEATADVEWRWHPYTNTARKRVFLSTE [T159A;F162A] |
